{"source": "paper PMC5689134", "about": "“Detailed Analysis of Insulin Absorption Variability and the Tissue Response to Continuous Subcutaneous Insulin Infusion Catheter Implantation in Swine” (Diabetes Technology & Therapeutics, 2017)", "experiment": "Insulin lispro absorption PK after 5-U bolus through CSII catheters in swine", "assay_type": "in vivo", "conditions": "for tmax (time-to-peak) / AUC60 (0-60 min after bolus) / Cmax (maximal plasma insulin level) / AUC (0-160 min after bolus, baseline subtracted): mean ± SD; for AUC60 (0-60 min after bolus) / Cmax (maximal plasma insulin level) / AUC (0-160 min after bolus, baseline subtracted): plasma ELISA", "from_the_text": "We performed an observational study in six swine to evaluate the PK of insulin lispro (U-100 Humalog; Eli Lilly) infused through CSII catheters implanted for 5 days. Six commercial CSII catheters (CCs) and six investigational CSII catheters (ICs) were inserted into the subcutaneous tissue of each swine. Lispro insulin and saline were infused through the CCs and ICs for 5 days using battery powered insulin pumps and the same basal/bolus pattern of delivery. Additional CCs and ICs were filled with saline and capped (Supplementary Table S1; Supplementary Data are available online at www.liebertpub.com/dia). Insulin PK (Cmax, tmax, AUC, AUC60) following a 5-U bolus were evaluated on days 1, 3, and 5. The tissue surrounding the 72 CSII was excised and pathologically analyzed to elucidate the relationship between the PK of insulin absorption and the inflammatory tissue response to trauma and the CSII cannula.\nThe study was performed in six nondiabetic ambulatory female swine (68.5 ± 3.6 kg). The protocol was approved by the Institutional Animal Care & Use Committee of Thomas Jefferson University. […] The CVC ports were flushed every 1–3 days using a Huber needle and low-dose heparin solution. One week later, each swine was given general anesthesia and six CCs (Inset™; UnoMedical, Denmark) and six ICs were inserted into the subcutaneous tissue of the abdomen using an aseptic technique according to the manufacturer's instructions. In total, 72 CSII were implanted in six swine.\nTwo CCs and two ICs were connected to insulin pumps (OneTouch Ping; Animas Corporation, West Chester, PA) containing rapid acting lispro insulin. Two CCs and two ICs were connected to insulin pumps containing saline solution. […] CSII were secured with Tegaderm™ adhesive bandages and the eight insulin pumps were secured within the pockets of a custom vest (Lomir Biomedical, Inc., Supplementary Fig. S2). Insulin lispro was continuously infused through the four CSII catheters at a low basal rate (0.2 U/h/catheter = 0.8 U/h). Insulin and saline were infused using the same basal/bolus pattern throughout the 5-day study.\nPK studies were performed on days 1, 3, and 5 after CSII insertion. On day 1, animals recovered from general anesthesia for ∼2 h before starting the PK study. Blood was sampled from a CVC every 10 min for ∼2 h, followed by every 15 min for 1 h before administering the second bolus and repeating the sampling schedule. When blood sample acquisition from a CVC was not possible, samples were obtained from the alternate CVC or occasionally omitted. The swine were able to stand up, lie down, and consume food (apples, biscuits) and water during the PK study. The concentration of blood glucose (BG) was measured in duplicate using the YSI analyzer. Samples were centrifuged to plasma and stored at −80°C for subsequent insulin assay. A stable baseline was established for ∼30 min (three to five BG values).\nWe then infused a 5-U bolus of insulin into a CC or an IC in a randomized order. The concentration of BG was maintained between 100 and 160 mg/dL by adjusting an intravenous infusion of 20% dextrose every 5–10 min for 3 h. A second baseline was then established for ∼30 min to ensure that BG levels have returned to baseline values after the morning insulin bolus, followed by a 5-U bolus of insulin infused into the alternate CSII catheter. The afternoon PK study ended ∼3 h later. Thus, two PK studies were performed on days 1, 3, and 5 in the same swine using the same CC and IC each day.\nThe concentration of lispro insulin was measured in plasma samples by PreClinOmics, Inc. (Indianapolis, IN) using a porcine insulin ELISA and an Iso-insulin ELISA (Mercodia AB, Uppsala, Sweden). The lispro insulin concentration was calculated by subtracting the porcine insulin from the total insulin concentration. […]", "key": {"[1]": {"conditions": "day 5, 5-U bolus via CC, Mean±SD of swine 2-6 (Table S4), SD"}, "[2]": {"conditions": "day 5, 5-U bolus via CC, individual animal: swine 2"}, "[3]": {"conditions": "day 5, 5-U bolus via CC, individual animal: swine 3"}, "[4]": {"conditions": "day 5, 5-U bolus via CC, individual animal: swine 4"}, "[5]": {"conditions": "day 5, 5-U bolus via CC, individual animal: swine 5"}, "[6]": {"conditions": "day 5, 5-U bolus via CC, individual animal: swine 6"}, "[7]": {"conditions": "day 5, 5-U bolus via IC (pump occlusion alarm during bolus), individual animal: swine 3"}, "[8]": {"conditions": "day 5, 5-U bolus via IC (pump occlusion alarm during bolus), individual animal: swine 4"}, "[9]": {"conditions": "day 5, 5-U bolus via IC (pump occlusion alarm during bolus), individual animal: swine 5"}, "[10]": {"conditions": "day 5, 5-U bolus via IC, Mean±SD of swine 1-6 (Table S4), SD"}, "[11]": {"conditions": "day 5, 5-U bolus via IC, individual animal: swine 1"}, "[12]": {"conditions": "day 5, 5-U bolus via IC, individual animal: swine 2"}, "[13]": {"conditions": "day 5, 5-U bolus via IC, individual animal: swine 6"}, "[14]": {"conditions": "swine, 5-U s.c. bolus via CC, day 1, n = 5, SD"}, "[15]": {"conditions": "swine, 5-U s.c. bolus via CC, day 3, n = 5, SD"}, "[16]": {"conditions": "swine, 5-U s.c. bolus via CC, day 5, n = 5, SD"}, "[17]": {"conditions": "swine, 5-U s.c. bolus via IC, day 1, n = 6, SD"}, "[18]": {"conditions": "swine, 5-U s.c. bolus via IC, day 3, n = 6, SD"}, "[19]": {"conditions": "swine, 5-U s.c. bolus via IC, day 5, n = 6, SD"}}}
{"substance": "insulin lispro", "values": [{"measurement": "Cmax", "setting": "[1]", "result": "114.66±30", "unit": "mUL"}, {"measurement": "tmax", "setting": "[1]", "result": "12.00 ± 4", "unit": "min"}, {"measurement": "Cmax", "setting": "[2]", "result": 113.43, "unit": "mUL"}, {"measurement": "tmax", "setting": "[2]", "result": 10, "unit": "min"}, {"measurement": "AUC", "setting": "[3]", "result": 119.45, "unit": "mULh"}, {"measurement": "Cmax", "setting": "[3]", "result": 116.16, "unit": "mUL"}, {"measurement": "tmax", "setting": "[3]", "result": 20, "unit": "min"}, {"measurement": "AUC", "setting": "[4]", "result": 57.25, "unit": "mULh"}, {"measurement": "Cmax", "setting": "[4]", "result": 156.62, "unit": "mUL"}, {"measurement": "tmax", "setting": "[4]", "result": 10, "unit": "min"}, {"measurement": "AUC", "setting": "[5]", "result": 48.26, "unit": "mULh"}, {"measurement": "Cmax", "setting": "[5]", "result": 115.52, "unit": "mUL"}, {"measurement": "tmax", "setting": "[5]", "result": 10, "unit": "min"}, {"measurement": "AUC", "setting": "[6]", "result": 54.47, "unit": "mULh"}, {"measurement": "Cmax", "setting": "[6]", "result": 71.56, "unit": "mUL"}, {"measurement": "tmax", "setting": "[6]", "result": 10, "unit": "min"}, {"measurement": "AUC", "setting": "[7]", "result": 54.83, "unit": "mULh"}, {"measurement": "Cmax", "setting": "[7]", "result": 85.06, "unit": "mUL"}, {"measurement": "tmax", "setting": "[7]", "result": 30, "unit": "min"}, {"measurement": "AUC", "setting": "[8]", "result": 100.49, "unit": "mULh"}, {"measurement": "Cmax", "setting": "[8]", "result": 269.32, "unit": "mUL"}, {"measurement": "tmax", "setting": "[8]", "result": 20, "unit": "min"}, {"measurement": "AUC", "setting": "[9]", "result": 57.08, "unit": "mULh"}, {"measurement": "Cmax", "setting": "[9]", "result": 131.09, "unit": "mUL"}, {"measurement": "tmax", "setting": "[9]", "result": 10, "unit": "min"}, {"measurement": "AUC", "setting": "[10]", "result": "40.96±38", "unit": "mULh"}, {"measurement": "Cmax", "setting": "[10]", "result": "105.08±88", "unit": "mUL"}, {"measurement": "tmax", "setting": "[10]", "result": "33.33 ± 19", "unit": "min"}, {"measurement": "AUC", "setting": "[11]", "result": 28.30, "unit": "mULh"}, {"measurement": "Cmax", "setting": "[11]", "result": 68.17, "unit": "mUL"}, {"measurement": "tmax", "setting": "[11]", "result": 60, "unit": "min"}, {"measurement": "AUC", "setting": "[12]", "result": 1.77, "unit": "mULh"}, {"measurement": "Cmax", "setting": "[12]", "result": 47.10, "unit": "mUL"}, {"measurement": "tmax", "setting": "[12]", "result": 50, "unit": "min"}, {"measurement": "AUC", "setting": "[13]", "result": 3.27, "unit": "mULh"}, {"measurement": "Cmax", "setting": "[13]", "result": 29.76, "unit": "mUL"}, {"measurement": "tmax", "setting": "[13]", "result": 30, "unit": "min"}, {"measurement": "Insulin absorption, range between animals", "setting": "swine, 5-U bolus via IC, day 3, range over six ICs", "result": "9–132 mU/L*h"}, {"measurement": "tmax (time-to-peak)", "setting": "[14]", "result": "35.0 ± 17.3", "unit": "min"}, {"measurement": "AUC60 (0-60 min after bolus)", "setting": "[14]", "result": "50.9 ± 12.9", "unit": "mU/L·h"}, {"measurement": "Cmax (maximal plasma insulin level)", "setting": "[14]", "result": "90.7 ± 26.8", "unit": "mU/L"}, {"measurement": "tmax (time-to-peak)", "setting": "[15]", "result": "20.0 ± 12.2", "unit": "min"}, {"measurement": "AUC60 (0-60 min after bolus)", "setting": "[15]", "result": "47.0 ± 25.6", "unit": "mU/L·h"}, {"measurement": "AUC (0-160 min after bolus, baseline subtracted)", "setting": "[15]", "result": "63.1 ± 22.8", "unit": "mU/L*h"}, {"measurement": "Cmax (maximal plasma insulin level)", "setting": "[15]", "result": "73.9 ± 41.0", "unit": "mU/L"}, {"measurement": "AUC60 (0-60 min after bolus)", "setting": "[16]", "result": "54.9 ± 20.8", "unit": "mU/L·h"}, {"measurement": "AUC (0-160 min after bolus, baseline subtracted)", "setting": "[16]", "result": "71.1 ± 29.4", "unit": "mU/L*h"}, {"measurement": "Cmax (maximal plasma insulin level)", "setting": "[16]", "result": "114.7 ± 30.1", "unit": "mU/L"}, {"measurement": "tmax (time-to-peak)", "setting": "[17]", "result": "43.3 ± 28.8", "unit": "min"}, {"measurement": "AUC60 (0-60 min after bolus)", "setting": "[17]", "result": "44.3 ± 23.2", "unit": "mU/L·h"}, {"measurement": "Cmax (maximal plasma insulin level)", "setting": "[17]", "result": "120.0 ± 59.3", "unit": "mU/L"}, {"measurement": "tmax (time-to-peak)", "setting": "[18]", "result": "20.0 ± 6.3", "unit": "min"}, {"measurement": "AUC60 (0-60 min after bolus)", "setting": "[18]", "result": "42.7 ± 40.0", "unit": "mU/L·h"}, {"measurement": "AUC (0-160 min after bolus, baseline subtracted)", "setting": "[18]", "result": "63.1 ± 51.8", "unit": "mU/L*h"}, {"measurement": "Cmax (maximal plasma insulin level)", "setting": "[18]", "result": "115.0 ± 86.2", "unit": "mU/L"}, {"measurement": "AUC60 (0-60 min after bolus)", "setting": "[19]", "result": "29.0 ± 31.3", "unit": "mU/L·h"}, {"measurement": "AUC (0-160 min after bolus, baseline subtracted)", "setting": "[19]", "result": "40.1 ± 37.6", "unit": "mU/L*h"}, {"measurement": "Cmax (maximal plasma insulin level)", "setting": "[19]", "result": "105.1 ± 87.7", "unit": "mU/L"}, {"measurement": "AUC (0-160 min after bolus, baseline subtracted)", "setting": "swine, 5-U s.c. bolus via commercial CSII catheter (CC), day 1 of wear-time, n = 5 (AUC of swine 6 not calculable), SD", "result": "82.7 ± 37.6", "unit": "mU/L*h"}, {"measurement": "AUC (0-160 min after bolus, baseline subtracted)", "setting": "swine, 5-U s.c. bolus via investigational CSII catheter (IC), day 1, n = 6, SD", "result": "68.5 ± 36.0", "unit": "mU/L*h"}]}
